From patent publication US8119594B1, “Method of modulating integrin mediated cellular activity and agents useful for same” (Inter-K Pty Limited, priority 1999, dated 2012)
Each block holds one compound with its values, some of them ahead of it. Where a SMILES comes first, the peptide text is derived from it. Where no end group is shown, it is not given here. The star is where a group is joined. Biotin = O=C1N[C@H]2[C@H](CS[C@H]2CCCCC(=O)*)N1

Legend:
[1] = tested on: p42/p44 MAP kinase activity in HT29 cells; experiment: MAP kinase assay in HT29 cells after serum stimulation; type: cell-based, human; settings: HT29 wild-type; inhibitor 40 μM added one hour before serum
Procedure: (§1) Cultures of WiDr and HT29 mock and antisense β6 transfectants were established by seeding 1×10^6 cells/5 ml of culture medium in 25 cm^2 tissue culture flasks. Cells were incubated at 37° C. in humidified CO2 for 24 hours before serum starvation in serum-free medium for the next 16 hours. Foetal calf serum was then added to a final concentration of 10% for 30 mins before MAP kinase assays were performed. […] The ability of cells to transfer phosphate from [γ^32P]-ATP to a synthetic peptide that contains specifically a p42/p44 MAP kinase phosphorylation site was measured as described in the manufacturer's instructions. [^32P]-labelled peptides were spotted onto PE1-cellulose paper, unbound radioactivity was washed with 75 mM phosphoric acid and bound [^32P]-labelled peptides were measured by liquid scintillation counting. Protein estimation was performed on each cell lysate used and enzyme activity calculated as described in the manufacturer's instructions. […]
(§2) The effect of MEK (MAP kinase kinase) inhibitors U0126 and PD98059 on MAP kinase activity in WiDr and HT29 wild-type cells was tested in the absence/presence of serum. […] Serum was then added for 30 min and MAP kinase activity assessed before and after addition of serum. […]

[2] = tested on: p42/p44 MAP kinase activity in WiDr cells; experiment: MAP kinase assay in WiDr cells after serum stimulation; type: cell-based, human; settings: WiDr wild-type; inhibitor 40 μM added one hour before serum
Procedure: as §1, §2

[3] = tested on: gelatinase B secretion by SW480 β6 transfectants; experiment: Gelatinase B secretion by gelatin zymogram; type: cell-based, human; settings: 40 μM; 48 hours; serum-free; compared with controls
Procedure: SW480 β6 transfectants were cultured under serum-free conditions for 48 hours in the absence/presence of the MEK inhibitor PD98059 (40 μM) or DMSO (vehicle control). Tumour-conditioned medium was assayed for gelatinase B by analysis of equal protein loads in a gelatin zymogram.

HT29 colon cancer cells = experiment: WST-1 cell proliferation assay in HT29 cells; type: cell-based, human; settings: 10 μm, 24 hours, serum-free medium, FIG. 28
Procedure: HT29 and SW480 β6-expressing colon cancer cell lines were seeded into wells of 96-well microtitre plates (Nunclon) in Dulbecco's Modified Eagle's Medium (DMEM) supplemented with 10% foetal bovine serum, glutamine, Hepes, and antibiotics. […] The cell proliferation reagent WST-1 is designed to be used for the non-radioactive, spectrophotometric quantification of cell growth and viability in proliferation and chemosensitivity assays. […]
In particular, at the termination of experiments, 30 μl of WST-1 was added to 270 μl culture medium volume in each microtitre well and the colour change quantitated in an ELISA plate reader by measuring absorbance of the formazan product at 450 nm (using a reference wavelength of more than 600 nm). The mean absorbance readings from triplicate wells (±standard error of the means) after subtraction of background control wells (culture medium without cells) was determined.

[4] = tested on: SW480 β6-expressing colon cancer cells; settings: for inhibition of cell proliferation (WST-1): SW480 β6-expressing, 30 μm, 24 hours, serum-free medium, FIG. 29
Procedure: HT29 and SW480 β6-expressing colon cancer cell lines were seeded into wells of 96-well microtitre plates (Nunclon) in Dulbecco's Modified Eagle's Medium (DMEM) supplemented with 10% foetal bovine serum, glutamine, Hepes, and antibiotics. Seeding cell densities were 3×10^3 cells per triplicate well for each condition tested and after 24 hours incubation of cell cultures in 5% CO2, 100% humidity at 37° C., the culture medium was exchanged for serum-free DMEM medium supplemented with insulin, transferrin, selenous acid, hydrocortisone, non-essential amino acids, glutamine, Hepes and antibiotics containing either peptide [sequence] (SEQ ID NO. 2) alone or penetratin-peptide complex at a concentration of 10 μm for HT29 cells or 30 μm for SW480 β6-expressing cells. Cell cultures were incubated for a further 24 hours following which cultures were photographed (Kodak Techpan Film at 100 ASA setting) and the experiments terminated by addition of the cell proliferation reagent WST-1 (Boehringer Mannheim) to monitor effects of the peptide on cell growth.
SW480 mock and SW480 β6 transfectants were cultured in DMEM medium supplemented with 1% foetal bovine serum in the presence of 20 μM seq. […] Percentage inhibition was assessed by the WST-1 colorimetric dehydrogenase assay described in Example 6.
Growth inhibition of SW480 cells expressing full length wild-type β6 exposed to seq.4 coupled to penetratin or [sequence] (SEQ ID NO. 2) peptide coupled to penetratin (5, 10, 20, 30 μM in DMEM minus foetal bovine serum) but which peptide contained alanine substitutions at the four positions indicated was assessed.

ERK2 = target: T1, ERK2 (Mus musculus, UniProt P63085); experiment: ELISA binding of ERK2 to biotinylated integrin cytoplasmic domain peptides; settings: for binding of ERK2 to integrin β subunit cytoplasmic domain peptides: corrected for non-specific binding, FIG. 34; for binding of ERK2 (thrombin cleaved): ERK2 cleaved from GST-ERK2 by thrombin, compared to seq. 4, FIG. 23; for binding of GST.ERK2 to shorter test peptides: range of peptide concentrations, seq. 4 compared to fragment 2, seq. 3 compared to seq. 4, FIG. 20; for binding of non-phosphorylated ERK2: over a range of concentrations of ERK2, compared to fragments 1, 3 and 4, FIG. 18
T1 construct: made in house
Procedure: Peptide fragments corresponding to regions of the cytoplasmic tail domain of the β6 subunit were screened in an enzyme-linked immunosorbent assay (ELISA) for binding with ERK2. The […] β6 cytoplasmic tail is shown in FIG. 16 as are the amino acid sequences for the cytoplasmic domains of the β1 to β3 subunits. In particular, four synthetic peptides designated fragment 1 to fragment 4 were prepared and biotinylated at the N-terminal end of each, respectively (Auspep Pty Ltd, Melbourne Australia).
(§3) Overlapping biotinylated fragments 1 to 4 were coated onto streptavidin coated polystyrene plates (Pierce, Rockford Ill. USA, Cat No. 15125) and the ELISA performed substantially according to manufacturers instructions. Briefly, wells are washed with 3×200 μl of wash buffer (TBS, 0.1% BSA, 0.05% Tween 20 or SuperBlock™ blocking buffer in TBS, Pierce, Prod. No. 37535) prior to addition of biotinylated peptides (100 μl) and incubation for 1 hr at room temperature to allow for capture of the peptides on the plate. Following another washing step, peptides were overlayed with GST-ERK, ERK (or JNK-1) alone at a volume of 100 μl per well, and the plates incubated for a further 1 hr at room temperature before removal of any unbound ERK by further washing.
Binding of ERK to the peptides is detected using 100 μl anti-ERK1/2 mAb SC1647 (Santa Cruz) as the primary antibody at a dilution of 1:700 (isotype matched antibody IgG2b is used as a control). This is followed by another washing step and addition of 100 μl rabbit anti-mouse antibody (Biorad) conjugated to alkaline phosphatase at a concentration of 1:1000 for 30 minutes again at room temperature. A 100 μl aliquot of detection reagent (alkaline phosphatase detection kit-Biorad) is then introduced into each well after a final washing step and allowed to react for 15-30 minutes at room temperature in the dark before absorbance is measured at 405 nm. All dilutions of peptides, MAP kinase and antibodies were performed using the wash buffer. GST-ERK is a fusion protein consisting of ERK coupled to glutathione-S-transferase and purified from host cells transfected with pGEX vector.

JNK-1 = target: T2, JNK-1 (Homo sapiens, UniProt P45983); experiment: ELISA binding of JNK-1 to β6 cytoplasmic tail peptide; settings: JNK-1 0.05-1.5 μm/100 μl; increasing peptide concentrations; FIG. 24
T2 construct: purchased Santa Cruz
Procedure: as §3
Briefly, 0.05-1.5 μm/100 μl of JNK-1 (Santa Cruz) was aliquoted into wells of a 96 well culture place containing increasing concentrations of the β6 cytoplasmic domain tail peptide used in Example 3. For comparison purposes, non-phosphorylated GST-ERK2 (0.05-1.5 μm/100 μl) was aliquoted into wells containing β6 cytoplasmic tail peptide or peptide fragments 1 or 2, respectively. Binding of JNK-1 was detected using mouse anti-JNK-1 mAb SC 474-G (Santa Cruz) and HRP-conjugated goat anti-mouse antibody.

T1 sequence (P63085 whole entry, the tested form may be a part): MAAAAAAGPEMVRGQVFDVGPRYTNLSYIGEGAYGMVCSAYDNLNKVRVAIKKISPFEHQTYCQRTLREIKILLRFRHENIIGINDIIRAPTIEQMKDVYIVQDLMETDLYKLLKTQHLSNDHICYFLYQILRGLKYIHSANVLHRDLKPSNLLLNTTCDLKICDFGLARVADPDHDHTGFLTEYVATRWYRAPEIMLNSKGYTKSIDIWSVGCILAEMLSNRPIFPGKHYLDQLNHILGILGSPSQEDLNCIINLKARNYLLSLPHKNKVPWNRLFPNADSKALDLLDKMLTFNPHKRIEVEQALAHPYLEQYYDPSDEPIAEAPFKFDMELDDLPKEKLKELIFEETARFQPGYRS
T2 sequence (P45983 whole entry, species assumed): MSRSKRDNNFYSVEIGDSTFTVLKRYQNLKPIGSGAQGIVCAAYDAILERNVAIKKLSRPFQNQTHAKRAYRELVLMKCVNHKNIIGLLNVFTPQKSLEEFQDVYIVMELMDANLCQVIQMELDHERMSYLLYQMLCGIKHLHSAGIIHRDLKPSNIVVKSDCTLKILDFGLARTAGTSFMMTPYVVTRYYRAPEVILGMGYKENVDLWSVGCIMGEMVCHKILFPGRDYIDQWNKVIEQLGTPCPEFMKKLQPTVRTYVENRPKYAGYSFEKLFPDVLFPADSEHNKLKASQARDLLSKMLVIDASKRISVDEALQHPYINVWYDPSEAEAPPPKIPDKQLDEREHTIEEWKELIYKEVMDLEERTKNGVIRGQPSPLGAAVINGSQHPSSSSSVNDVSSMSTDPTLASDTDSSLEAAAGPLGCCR

Compound: COc1cccc(-c2cc(=O)c3ccccc3o2)c1N [PD98059]
serum-stimulated MAP kinase activity [1]: inhibitable
serum-stimulated MAP kinase activity [2]: inhibitable
gelatinase B secretion [3]: reduced gelatinase B secretion

Compound: N#CC(=C(/N)Sc1ccccc1N)/C(C#N)=C(\N)Sc1ccccc1N [U0126]
serum-stimulated MAP kinase activity [1]: inhibitable
serum-stimulated MAP kinase activity [2]: inhibitable

Compound: CC[C@H](C)[C@H](NC(=O)[C@H](CCCCN)NC(=O)[C@@H](NC(=O)[C@H](CCC(N)=O)NC(=O)[C@@H](N)CCCNC(=N)N)[C@@H](C)CC)C(=O)N[C@@H](Cc1c[nH]c2ccccc12)C(=O)N[C@@H](Cc1ccccc1)C(=O)N[C@@H](CCC(N)=O)C(=O)N[C@@H](CC(N)=O)C(=O)N[C@@H](CCCNC(=N)N)C(=O)N[C@@H](CCCNC(=N)N)C(=O)N[C@@H](CCSC)C(=O)N[C@@H](CCCCN)C(=O)N[C@@H](Cc1c[nH]c2ccccc12)C(=O)N[C@@H](CCCCN)C(=O)N[C@@H](CCCCN)C(=O)N[C@@H](CCCNC(=N)N)C(=O)N[C@@H](CO)C(=O)N[C@@H](CCCCN)C(=O)N[C@@H](C)C(=O)N[C@@H](CCCCN)C(=O)N[C@@H](Cc1c[nH]c2ccccc12)C(=O)N[C@@H](CCC(N)=O)C(=O)N[C@H](C(=O)NCC(=O)N[C@H](C(=O)N[C@@H](CC(N)=O)C(=O)N1CCC[C@H]1C(=O)N[C@@H](CC(C)C)C(=O)N[C@@H](Cc1ccc(O)cc1)C(=O)N[C@@H](CCCNC(=N)N)C(=O)O)[C@@H](C)O)[C@@H](C)O [penetratin-peptide complex] (H-RQIKIWFQNRRMKWKKRSKAKWQTGTNPLYR-OH; N-terminus and C-terminus assumed)
inhibition of cell proliferation (WST-1) (HT29 colon cancer cells): effective in inhibiting cell proliferation
growth inhibition, dose response ([4]; SW480 full length wild-type β6, 5, 10, 20, 30 μM in DMEM minus foetal bovine serum, FIG. 33): progressive inhibition of proliferation in a dose-response manner
inhibition of cell proliferation (WST-1) [4]: effective in inhibiting cell proliferation

Compound: RSKAK (HOMO SAPIENS) [5 mer peptide]
binding of ERK2 (thrombin cleaved) (ERK2): Negligible binding

Compound: RSKAKNPLYR (HOMO SAPIENS) [10(4), 4 is omitted]
binding of ERK2 (thrombin cleaved) (ERK2): Comparable binding

Continued, in another order:

binding of ERK2 to integrin β subunit cytoplasmic domain peptides (ERK2): also found
Compound: RARAKWDTANNPLYK (HOMO SAPIENS) [β3, peptide corresponding to a region of the β3 cytoplasmic domain]

binding of GST.ERK2 to shorter test peptides (ERK2): substantially less
Compound: RSKAKWQTGT (HOMO SAPIENS) [seq. 3, 10 mer test peptide from the β6 cytoplasmic tail]

binding of ERK2 to integrin β subunit cytoplasmic domain peptides (ERK2): significant binding
binding of GST.ERK2 to shorter test peptides (ERK2): no reduction in binding
Compound: RSKAKWQTGTNPLYR (HOMO SAPIENS) [seq. 4]
inhibition of cell proliferation (WST-1) (HT29 colon cancer cells): Only the carrier penetratin-peptide complex was effective
inhibition of cell proliferation (WST-1) [4]: Only the carrier penetratin-peptide complex was effective

binding of non-phosphorylated GST.ERK2 to peptide fragment (ERK2; GST.ERK2 0.25 μg/100 μl, peptide 1 μg/100 μl, FIG. 17): significant binding
binding of non-phosphorylated ERK2 (ERK2): Significant binding
Compound: RSKAKWQTGTNPLYRGSTST (Biotin-RSKAKWQTGTNPLYRGSTST) [fragment 2, N-terminally biotinylated synthetic peptide of the β6 cytoplasmic tail]

binding of ERK2 to integrin β subunit cytoplasmic domain peptides (ERK2): also found
Compound: RSRARYEMASNPLYR (HOMO SAPIENS) [β5, peptide corresponding to a region of the β5 cytoplasmic domain]

binding of JNK-1 (JNK-1): Significant binding
binding of non-phosphorylated ERK2 (ERK2): Significant binding
Compound: β6 cytoplasmic tail peptide: peptide of the cytoplasmic tail domain of the integrin β6 subunit (HDRKEVAKFEAERSKAKWQTGTNPLYRGSTSTFKNVTYKHREKQKVDLSTDS; HOMO SAPIENS)
